The values that follow come from article PMC10165274 (The Journal of Biological Chemistry, 2023).

Assay in all cases: ITC; peptide (FEN1 800 uM, pol δ p66 550 uM, RNaseH2B 750 uM) with 33 to 38 uM individual PCNA (not trimeric rings); 25 °C
Holding throughout (conditions): both partners purified
On the technique in general: ITC needs no label: the signal is the heat of the interaction.

In assay [1] the target is T1, Proliferating cell nuclear antigen, wild type (human, UniProt P12004 1-261).
T1 construct: PCNA, human; untagged, expressed from the pET3c vector; Homotrimeric ring; also called PCNA-WT; PCNA; source: E. coli BLR-DE3, purified (S and Q HiTrap columns, Sephacryl-200 gel filtration)
T1 sequence (P12004 whole entry): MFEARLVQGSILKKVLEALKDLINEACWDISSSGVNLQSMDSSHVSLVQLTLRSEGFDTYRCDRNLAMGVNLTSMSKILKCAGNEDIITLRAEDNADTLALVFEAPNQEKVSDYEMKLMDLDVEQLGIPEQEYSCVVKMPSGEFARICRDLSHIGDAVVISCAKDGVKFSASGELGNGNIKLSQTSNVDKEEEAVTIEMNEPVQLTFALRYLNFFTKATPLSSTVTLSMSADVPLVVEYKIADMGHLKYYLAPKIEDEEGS

Assay [2] addresses T2, Proliferating cell nuclear antigen C148S variant (human, UniProt P12004 1-261, C148S).
T2 construct: PCNA, human, patient-derived variant p.Cys148Ser; untagged, made by site-directed mutagenesis of PCNA-WT in pET3c; Disease-associated natural allele (PARD); Homotrimeric ring; also called PCNA-C148S; C148S-PCNA; source: E. coli BLR-DE3, purified (S and Q HiTrap columns, Sephacryl-200 gel filtration)

Assay [3] deals with T3, Proliferating cell nuclear antigen S228I variant (human, UniProt P12004 1-261, S228I).
T3 construct: PCNA, human, patient-derived variant p.Ser228Ile; expressed from the pET3c vector; Disease-associated natural allele (PARD); also called PCNA-S228I; source: E. coli BLR-DE3, purified (S and Q HiTrap columns, Sephacryl-200 gel filtration)
T3 sequence (P12004 whole entry S228I): as the sequence (P12004 whole entry) above, with S228I counted along it

T2 sequence (P12004 whole entry C148S): as the sequence (P12004 whole entry) above, with C148S counted along it

B1: FEN1 PIP-box peptide (peptide)
peptide: STQGRLDDFFKVTGSL
notes: PIP-box peptide of Flap endonuclease 1 (FEN1); free C-terminus (-OH); source: synthetic peptide (21st Century Biochemicals)
On to B1, for which the Kd in assay [1] and in assay [2] was 11 ± 2 µM throughout.

B2: DNA polymerase delta p66 PIP-box peptide (peptide)
peptide: KANRQVSITGFFQRK
notes: PIP-box peptide of the p66 subunit of DNA polymerase delta; also called pol δ p66; pol δ; source: synthetic peptide (21st Century Biochemicals)
Turning to B2, the figures for the dissociation constant (Kd) in assay [1], in assay [2] and in assay [3] were 3 ± 0.16 µM, 2.8 ± 0.33 µM and 4 ± 0.14 µM, respectively.

B3: RNaseH2B PIP-box peptide (peptide)
peptide: DKSGMKSIDTFFGVKNKKKIGKV
notes: PIP-box peptide of RNaseH2B; free C-terminus (-OH); printed with a blank after SID; source: synthetic peptide (21st Century Biochemicals)
As to B3, the results for the Kd in assay [1] and in assay [2] were 9.7 ± 0.3 µM and 7.8 ± 0.01 µM, respectively.
